Experiment [1] addresses T1, KIFC3 peptide AELGSWSSQEHLEWE (human).
T1 peptide: AELGSWSSQEHLEWE
The experiment can be described thus: peptide microarray epitope mapping (binding stretch).

Experiment [2] has as its target T2, KIFC3 peptide LGSWSSQEHLEWEPA (human).
T2 peptide: LGSWSSQEHLEWEPA
The experiment is described as above.

Experiment [3] addresses T3, KIFC3 peptide EYTITVSAAEIYNEV (human).
T3 peptide: EYTITVSAAEIYNEV
The description is as above.

The target in experiment [4] is T4, KIFC3 peptide DWEYTITVSAAEIYN (human).
T4 peptide: DWEYTITVSAAEIYN
The description is as above.

The target of experiment [5] is T5, KIFC3 peptide ASDWEYTITVSAAEI (human).
T5 peptide: ASDWEYTITVSAAEI
The experiment is described as above.

For experiment [6], the target named is T6, KIFC3 peptide SWSSQEHLEWEPACQ (human).
T6 peptide: SWSSQEHLEWEPACQ
The experiment is described as above.

The target in another experiment is T7, aminoacylase 3 (human, UniProt Q96HD9 1-319).
T7 construct: Also the protein of the custom ELISA; also called ACY3
T7 sequence (looked up): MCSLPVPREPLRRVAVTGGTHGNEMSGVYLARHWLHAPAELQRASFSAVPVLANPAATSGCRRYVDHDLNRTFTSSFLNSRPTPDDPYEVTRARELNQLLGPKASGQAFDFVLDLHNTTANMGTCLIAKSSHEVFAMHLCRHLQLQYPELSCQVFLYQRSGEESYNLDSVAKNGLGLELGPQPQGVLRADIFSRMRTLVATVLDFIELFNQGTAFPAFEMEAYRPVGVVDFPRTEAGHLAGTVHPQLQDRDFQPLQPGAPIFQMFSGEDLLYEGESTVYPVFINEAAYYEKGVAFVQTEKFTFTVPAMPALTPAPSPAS
The experiment can be described thus: custom ELISA.

Experiment [7] has as its target T8, AKR1A1 peptide ADLQLEYLDLYLMHW (human).
T8 peptide: ADLQLEYLDLYLMHW
The experiment is described as follows: peptide microarray epitope mapping (binding stretch).

Experiment [8] concerns the target T9, AKR1A1 peptide TVDGKRVPRDAGHPL (human).
T9 peptide: TVDGKRVPRDAGHPL
Described as above.

Experiment [9] has as its target T10, AKR1A1 peptide VPMLTVDGKRVPRDA (human).
T10 peptide: VPMLTVDGKRVPRDA
Described as above.

In experiment [10] the target is T11, AKR1A1 peptide RKTLADLQLEYLDLY (human).
T11 peptide: RKTLADLQLEYLDLY
The experiment is described as above.

For experiment [11], the target named is T12, AKR1A1 peptide LQLEYLDLYLMHWPY (human).
T12 peptide: LQLEYLDLYLMHWPY
The description is as above.

Experiment [12] has as its target T13, AKR1A1 peptide YIVPMLTVDGKRVPR (human).
T13 peptide: YIVPMLTVDGKRVPR
Described as above.

Experiment [13] addresses T14, AKR1A1 peptide TLADLQLEYLDLYLM (human).
T14 peptide: TLADLQLEYLDLYLM
Described as above.

Experiment [14] addresses T15, AKR1A1 peptide MLTVDGKRVPRDAGH (human).
T15 peptide: MLTVDGKRVPRDAGH
Described as above.

Experiment [15] deals with T16, AKR1A1 peptide LEYLDLYLMHWPYAF (human).
T16 peptide: LEYLDLYLMHWPYAF
The experiment is described as above.

The target of experiment [16] is T17, AKR1A1 peptide WRYIVPMLTVDGKRV (human).
T17 peptide: WRYIVPMLTVDGKRV
The experiment is described as above.

In experiment [17] the target is T18, magnesium dependent phosphatase 1 (human, UniProt Q86V88 1-176).
T18 construct: Also the protein of the custom ELISA; also called MDP1
T18 sequence (Q86V88 whole entry): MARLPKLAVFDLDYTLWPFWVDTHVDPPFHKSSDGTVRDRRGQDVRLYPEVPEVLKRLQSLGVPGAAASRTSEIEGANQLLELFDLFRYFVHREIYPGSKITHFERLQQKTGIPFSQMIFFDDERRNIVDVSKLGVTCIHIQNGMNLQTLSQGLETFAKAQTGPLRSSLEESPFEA
The experiment can be described thus: custom ELISA. (In an ELISA, binding on a coated surface is turned into a signal by an enzyme label.)

The next experiment has as its target T19, kinesin family member C3 (human, UniProt Q9BVG8-5 1-687).
T19 construct: Also the protein of the custom ELISA; also called KIFC3
T19 sequence (looked up): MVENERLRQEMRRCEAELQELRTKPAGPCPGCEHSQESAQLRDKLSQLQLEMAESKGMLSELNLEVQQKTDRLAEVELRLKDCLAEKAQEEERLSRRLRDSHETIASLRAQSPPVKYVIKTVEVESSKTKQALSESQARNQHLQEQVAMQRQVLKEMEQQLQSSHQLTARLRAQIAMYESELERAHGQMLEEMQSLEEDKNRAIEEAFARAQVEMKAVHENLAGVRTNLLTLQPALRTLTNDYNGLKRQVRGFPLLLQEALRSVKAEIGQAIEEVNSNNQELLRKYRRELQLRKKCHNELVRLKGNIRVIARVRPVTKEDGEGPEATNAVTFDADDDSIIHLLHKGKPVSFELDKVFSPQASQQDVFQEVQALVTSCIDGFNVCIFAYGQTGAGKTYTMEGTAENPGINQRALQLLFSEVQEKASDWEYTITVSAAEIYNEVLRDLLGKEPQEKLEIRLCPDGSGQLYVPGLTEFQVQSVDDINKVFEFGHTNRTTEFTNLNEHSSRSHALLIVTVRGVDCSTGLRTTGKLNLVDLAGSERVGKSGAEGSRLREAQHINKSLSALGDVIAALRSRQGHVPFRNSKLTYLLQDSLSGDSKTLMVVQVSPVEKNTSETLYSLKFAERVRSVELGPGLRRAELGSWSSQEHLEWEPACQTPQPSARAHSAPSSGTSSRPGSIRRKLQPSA
The experiment can be described thus: custom ELISA.

In experiment [18] the target is T20, microtubule associated scaffold protein 2 (human, UniProt Q5JR59-3 1-348).
T20 construct: Also the protein of the custom ELISA; also called MTUS2; microtubule associated tumor suppressor candidate 2
T20 sequence (looked up): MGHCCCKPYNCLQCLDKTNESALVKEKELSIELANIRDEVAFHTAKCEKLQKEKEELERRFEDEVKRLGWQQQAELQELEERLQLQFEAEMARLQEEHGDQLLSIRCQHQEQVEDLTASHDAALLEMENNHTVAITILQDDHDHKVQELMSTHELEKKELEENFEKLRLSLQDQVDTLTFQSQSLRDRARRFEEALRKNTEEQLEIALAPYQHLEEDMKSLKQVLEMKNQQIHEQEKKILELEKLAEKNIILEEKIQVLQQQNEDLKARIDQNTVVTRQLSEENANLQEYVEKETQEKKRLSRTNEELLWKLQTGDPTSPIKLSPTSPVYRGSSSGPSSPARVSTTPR
The experiment is described as follows: custom ELISA.

Experiment [19] concerns the target T21, aldo-keto reductase family 1 member A1 (human, UniProt P14550 1-325).
T21 construct: Also the protein of the custom ELISA; also called AKR1A1
T21 sequence (looked up): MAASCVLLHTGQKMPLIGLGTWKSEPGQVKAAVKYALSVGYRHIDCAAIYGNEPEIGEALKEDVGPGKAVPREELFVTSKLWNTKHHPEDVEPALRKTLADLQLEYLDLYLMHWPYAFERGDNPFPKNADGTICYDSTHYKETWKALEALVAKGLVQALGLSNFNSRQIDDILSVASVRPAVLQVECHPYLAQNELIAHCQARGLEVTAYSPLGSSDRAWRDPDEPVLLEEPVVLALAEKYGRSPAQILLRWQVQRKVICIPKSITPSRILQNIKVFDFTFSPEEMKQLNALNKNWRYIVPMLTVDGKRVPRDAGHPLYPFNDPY
The experiment is described as follows: custom ELISA.

Experiment [20] has as its target T22, peptidylprolyl isomerase like 1 (human, UniProt Q9Y3C6 1-166).
T22 construct: Also the protein of the custom ELISA; also called PPIL1
T22 sequence (looked up): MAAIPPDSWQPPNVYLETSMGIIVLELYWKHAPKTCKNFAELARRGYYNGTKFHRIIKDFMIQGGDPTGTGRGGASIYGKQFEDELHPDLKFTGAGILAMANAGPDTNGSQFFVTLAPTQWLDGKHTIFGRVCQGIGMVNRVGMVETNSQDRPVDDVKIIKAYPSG
The experiment can be described thus: custom ELISA.

For a further experiment, the target named is T23, DEAD-box helicase 53 (human, UniProt Q86TM3 1-631).
T23 construct: Also the protein of the custom ELISA; also called DDX53; CAGE
T23 sequence (Q86TM3 whole entry): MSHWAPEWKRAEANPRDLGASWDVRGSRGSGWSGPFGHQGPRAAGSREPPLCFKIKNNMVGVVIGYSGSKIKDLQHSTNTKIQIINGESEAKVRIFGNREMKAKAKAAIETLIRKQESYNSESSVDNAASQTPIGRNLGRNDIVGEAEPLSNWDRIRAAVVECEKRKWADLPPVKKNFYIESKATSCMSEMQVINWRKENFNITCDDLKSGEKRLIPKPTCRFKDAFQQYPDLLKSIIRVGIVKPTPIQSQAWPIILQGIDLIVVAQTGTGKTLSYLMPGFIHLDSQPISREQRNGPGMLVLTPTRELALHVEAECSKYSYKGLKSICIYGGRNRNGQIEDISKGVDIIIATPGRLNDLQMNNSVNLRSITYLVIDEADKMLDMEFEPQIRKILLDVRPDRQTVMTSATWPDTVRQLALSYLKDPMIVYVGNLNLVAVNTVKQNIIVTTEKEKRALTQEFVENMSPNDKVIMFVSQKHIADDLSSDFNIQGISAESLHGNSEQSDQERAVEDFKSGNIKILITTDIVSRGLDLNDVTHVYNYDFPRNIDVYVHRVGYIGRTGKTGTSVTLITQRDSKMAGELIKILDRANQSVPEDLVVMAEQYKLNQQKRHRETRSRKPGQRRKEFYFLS
The experiment is described as follows: custom ELISA.

Experiment [21] deals with T24, phosphoribosylglycinamide formyltransferase, phosphoribosylglycinamide synthetase, … (human, UniProt P22102-2 1-433).
T24 construct: Also the protein of the custom ELISA; also called GART
T24 sequence (looked up): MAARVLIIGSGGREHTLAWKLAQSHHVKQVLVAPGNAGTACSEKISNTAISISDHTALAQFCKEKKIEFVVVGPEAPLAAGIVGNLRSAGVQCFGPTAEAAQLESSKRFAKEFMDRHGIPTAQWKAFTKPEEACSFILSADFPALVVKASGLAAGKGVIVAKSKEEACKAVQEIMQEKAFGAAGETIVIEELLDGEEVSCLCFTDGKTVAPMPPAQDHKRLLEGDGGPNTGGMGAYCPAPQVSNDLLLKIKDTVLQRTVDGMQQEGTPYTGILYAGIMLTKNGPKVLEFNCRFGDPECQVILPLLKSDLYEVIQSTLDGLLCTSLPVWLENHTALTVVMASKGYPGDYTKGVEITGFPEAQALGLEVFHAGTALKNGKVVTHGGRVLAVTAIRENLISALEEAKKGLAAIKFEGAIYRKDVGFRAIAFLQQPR
The experiment can be described thus: custom ELISA.

For experiment [22], the target named is T25, DDX53 peptide GLDLNDVTHVYNYDF (human).
T25 peptide: GLDLNDVTHVYNYDF
The experiment is described as follows: peptide microarray epitope mapping (binding stretch).

Experiment [23] concerns the target T26, DDX53 peptide SGEKRLIPKPTCRFK (human).
T26 peptide: SGEKRLIPKPTCRFK
The description is as above.

Experiment [24] has as its target T27, DDX53 peptide HVYNYDFPRNIDVYV (human).
T27 peptide: HVYNYDFPRNIDVYV
Described as above.

Experiment [25] concerns the target T28, DDX53 peptide LKSGEKRLIPKPTCR (human).
T28 peptide: LKSGEKRLIPKPTCR
Described as above.

Experiment [26] addresses T29, DDX53 peptide KVRIFGNREMKAKAK (human).
T29 peptide: KVRIFGNREMKAKAK
The description is as above.

Experiment [27] deals with T30, DDX53 peptide SRGLDLNDVTHVYNY (human).
T30 peptide: SRGLDLNDVTHVYNY
The experiment is described as above.

Experiment [28] has as its target T31, DDX53 peptide EAKVRIFGNREMKAK (human).
T31 peptide: EAKVRIFGNREMKAK
Described as above.

Experiment [29] has as its target T32, DDX53 peptide RIFGNREMKAKAKAA (human).
T32 peptide: RIFGNREMKAKAKAA
The experiment is described as above.

B1: recombinant antibody P1-F6 (antibody, V domains shown)
VH: QVPLKESGPALVKPTRTLTLTCTFSGFSLSTNGVSVGWIRQPPGKALDWLALIYWNDDKRYSPSLKNRLTITKDTSKNLVVLRMTNMDPVDTATYYCAHRPIASSRDGFDYWGQGTLVTVSS
VL: DIQMTQFPSTLSASVGETVTISCRASQSVSGWLAWYQQKPGKAPKLLMYKASALENGVPSRFSGSGSGTEFTLTISSLQPDDFATYYCQQYNGFPFTFGPGTKVDIN
notes: also called clone P1-F6
As for B1, the binding result in experiment [1], in [2], in [3], in experiment [4], in experiment [5] and in experiment [6] was “binds” each time. Moreover, in the experiment with aminoacylase 3, the binding result is listed as “binds”.

B2: recombinant antibody P3-F1 (antibody, V domains shown)
VH: QVQLVESGPTLVKPTQTLTVTCTFSGFSLNTRAVGVGWIRQPPGGALEWLALVYWDDDKRYSPSLKNRLTITKDTSRNQVVLTLTNVAPVDTGTYYCSHHRLTDGRLRWGQGTLVTVSS
VL: QVQLVQSPGTLSLSPGERATLSCRASQSITSSYLAWYQQKFGQAPRLLIYRASNRATGIPDRFSGSGSGTDFTLTISSLESEDFAVYYCQQYDTSPWTFGQGTKVEIK
notes: also called clone P3-F1
Turning to B2, the binding result in [7], in experiment [8], in experiment [9], in experiment [10], in experiment [11] and in [12] was “binds” each time. The binding result in [13] is “binds”; in experiment [14], “binds”; in [15], “binds”; in experiment [16], “binds”; with aminoacylase 3, “no binding”; in experiment [17], “no binding”. Moreover, the binding result in the experiment with kinesin family member C3 is “no binding”; in experiment [18] it was “no binding”; in experiment [19], “binds”; in [20] it was “no binding”; in the experiment with DEAD-box helicase 53, “no binding”; in experiment [21] it was “no binding”.

B3: recombinant antibody P1-B4 (antibody, V domains shown)
VH: QVQLVESGPEVKKPGASVKVSCKASGYTFTSYGISWVRQAPGQGLEWMGWISVYKSDTNDAQKFQGRVTMTTDTSTSTAYMELRSLRSDDTAVYYCARSRGIVGSTLDDNWGQGTLVTVSS
VL: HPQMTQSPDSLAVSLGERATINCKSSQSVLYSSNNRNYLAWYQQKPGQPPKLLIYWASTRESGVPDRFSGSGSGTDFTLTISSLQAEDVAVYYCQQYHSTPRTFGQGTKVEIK
notes: also called clone P1-B4
Consider B3, for which the binding result in [22], in experiment [23], in experiment [24], in [25], in experiment [26] and in experiment [27] was “binds” each time. For the same molecule, the binding result (in experiment [28]; in experiment [29]; with DEAD-box helicase 53) was “binds” in each case.

These data come from patent publication EP4613775A1 (Eberhard Karls Universität Tübingen Medizinische Fakultät, dated 2025).
